Data on 4 molecules can be found in PMC11906750.

Where two headings read alike, the source gives them in different places.

Common to all, as to experiment: FRET or BRET
In general terms: Bioluminescence resonance energy transfer reports proximity on the nanometre scale.

Experiment [1] addresses HC-Pro^Tu-K-CFP (turnip mosaic virus).
Experiment [2] deals with HC-Pro^Tu-CFP (turnip mosaic virus).
Experiment [3] shares this target. This is another data set of the same source.
Experiment [4] has as its target HC-Pro^Tu-K-CFP (turnip mosaic virus). This is another data set of the same source.

Regarding HC-Pro^Tu-K-CFP (natural protein), the FRET efficiency in experiment [1] came out at 72%.

In turn, HC-Pro^Tu-CFP (natural protein) had an FRET efficiency in experiment [2] of 70%.

B1: YFP-HEN1 (enzyme)
chain: MAGGGKHTPTPKAIIHQKFGAKASYTVEEVHDSSQSGCLGLAIPQKGPCLYRCHLQLPEFSVVSNVFKKKKDSEQSAAELALDKLGIRPQNDDLTVDEARDEIVGRIKYIFSDEFLSAEHPLGAHLRAALRRDGERCGSVPVSVIATVDAKINSRCKIINPSVESDPFLAISYVMKAAAKLADYIVASPHGLRRKNAYPSEIVEALATHVSDSLHSREVAAVYIPCIDEEVVELDTLYISSNRHYLDSIAERLGLKDGNQVMISRMFGKASCGSECRLYSEIPKKYLDNSSDASGTSNEDSSHIVKSRNARASYICGQDIHGDAILASVGYRWKSDDLDYDDVTVNSFYRICCGMSPNGIYKISRQAVIAAQLPFAFTTKSNWRGPLPREILGLFCHQHRLAEPILSSSTAPVKSLSDIFRSHKKLKVSGVDDANENLSRQKEDTPGLGHGFRCEVKIFTKSQDLVLECSPRKFYEKENDAIQNASLKALLWFSKFFADLDVDGEQSCDTDDDQDTKSSSPNVFAAPPILQKEHSSESKNTNVLSAEKRVQSITNGSVVSICYSLSLAVDPEYSSDGESPREDNESNEEMESEYSANCESSVELIESNEEIEFEVGTGSMNPHIESEVTQMTVGEYASFRMTPPDAAEALILAVGSDTVRIRSLLSERPCLNYNILLLGVKGPSEERMEAAFFKPPLSKQRVEYALKHIRESSASTLVDFGCGSGSLLDSLLDYPTSLQTIIGVDISPKGLARAAKMLHVKLNKEACNVKSATLYDGSILEFDSRLHDVDIGTCLEVIEHMEEDQACEFGEKVLSLFHPKLLIVSTPNYEFNTILQRSTPETQEENNSEPQLPKFRNHDHKFEWTREQFNQWASKLGKRHNYSVEFSGVGGSGEVEPGFASQIAIFRREASSVENVAESSMQPYKVIWEWKKEDVEKKKTDL
With B1, in experiment [3], the FRET efficiency came to 55%.

B2: YFP-ATG8a (natural protein)
chain: MAKSSFKISNPLEARMSESSRIREKYPDRIPVIVEKAGQSDVPDIDKKKYLVPADLTVGQFVYVVRKRIKLGAEKAIFVFVKNTLPPTAALMSAIYEEHKDEDGFLYMTYSGENTFG
As to B2, the FRET efficiency in experiment [3] and in experiment [4] was 30% in each case.
